Data as given in patent US20100178296A1 (SCHERING, published 2010).
Substitutions are numbered along the chain they refer to.

T1: CYS mutated human CD200RLa extracellular domain fused to the Fc region of human IgG1 (human, UniProt Q6Q8B3 24-239)
T1 construct: also called CYS mutated human CD200RLa fusion protein; Human CD200RLa-Cys-mut; not shown: Fc region of human IgG1
T1 chain: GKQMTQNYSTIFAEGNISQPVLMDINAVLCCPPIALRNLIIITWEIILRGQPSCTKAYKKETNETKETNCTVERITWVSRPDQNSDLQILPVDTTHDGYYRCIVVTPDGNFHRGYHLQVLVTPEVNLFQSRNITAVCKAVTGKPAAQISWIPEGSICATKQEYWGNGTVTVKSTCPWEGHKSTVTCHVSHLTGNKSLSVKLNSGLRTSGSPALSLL

T2: wild-type human CD200RLa extracellular domain fused to the Fc region of human IgG1 (human, UniProt Q6Q8B3 24-239)
T2 construct: also called wild-type human CD200RLa fusion protein; not shown: Fc region of human IgG1
T2 sequence: T1 chain with C102G, C157L

B1: DX182, rat anti-human inhibitory CD200R monoclonal antibody (antibody, V domains shown)
VL: EVQMTQSPSTLTASPGESVSINCKASKNIRSYLAWYQQKPGKPNKLLIYSGSTLHSGTPSRFSGSGFGTDFTLTIRNLEPEDFGLYYCQQHHEYPLTFGSGTKLEIKR
VH: EIQLQESGPGLVKPSQSLSLTCSVTGYTITSGYDWSWIRKFPGNKMEWMGYINYGGSTNYKPSLGSRISITRDTSKNQFFLQLNSVSPEDTATYYCAKYNEYKSYIYDWYFDFWGPGTMVTVSS
notes: Rat hybridoma antibody; Rat IgG2a served as its isotype control; also called rat DX182; anti-huCD200R
B2: CYS mutated human CD200RLa, full length, on Ba/F3 cells expressing human DAP12 (receptor)
chain: GKQMTQNYSTIFAEGNISQPVLMDINAVLCCPPIALRNLIIITWEIILRGQPSCTKAYKKETNETKETNCTVERITWVSRPDQNSDLQILPVDTTHDGYYRCIVVTPDGNFHRGYHLQVLVTPEVNLFQSRNITAVCKAVTGKPAAQISWIPEGSICATKQEYWGNGTVTVKSTCPWEGHKSTVTCHVSHLTGNKSLSVKLNSGLRTSGSPALSLLIILYVKLSLFVVILVTTGFVFFQRINHVRKVL
notes: also called Human CD200RLa-Cys-mut; CYS mutated form of the receptor

Columns and labels:
[1] = biological target: B2; test: flow cytometry on Ba/F3 transfectants
[2] = biological target: T1, CYS mutated human CD200RLa …; test: indirect ELISA on the fusion protein
[3] = biological target: T2, wild-type human CD200RLa extracellular …; test: indirect ELISA on the fusion protein
[4] = biological target: T3, human DAP12 with a FLAG epitope at the N terminus, in Ba/F3 cells (human, UniProt O43914 22-113); test: surface appearance of FLAG-DAP12 on Ba/F3 transfectants, flow cytometry with anti-FLAG M2
T3 construct: whole, on cells; also called FLAG-tagged DAP12
T3 sequence (O43914 22-113): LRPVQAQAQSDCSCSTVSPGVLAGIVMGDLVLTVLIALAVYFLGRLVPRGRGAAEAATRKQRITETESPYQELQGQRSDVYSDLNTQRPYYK

Row | binding result [1] | binding result [2] | binding result [3] | binding result [4] | Binder
1 | no binding | no binding | no binding | – | B1
2 | – | – | – | binds | B2
